{
  "source": "paper PMC12502779",
  "molecular_target": "T1, 6xHis-OxyR (Salmonella enterica serovar Typhi ISP1820) (UniProt Q8XF66)",
  "T1 sequence": "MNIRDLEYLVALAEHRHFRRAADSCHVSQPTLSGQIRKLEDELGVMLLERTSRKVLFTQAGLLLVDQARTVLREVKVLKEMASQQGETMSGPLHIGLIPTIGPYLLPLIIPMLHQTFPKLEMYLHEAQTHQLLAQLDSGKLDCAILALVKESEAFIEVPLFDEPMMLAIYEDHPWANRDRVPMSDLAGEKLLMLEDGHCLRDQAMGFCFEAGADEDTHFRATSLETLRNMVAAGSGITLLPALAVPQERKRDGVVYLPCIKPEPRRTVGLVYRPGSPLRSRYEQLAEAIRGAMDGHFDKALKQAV",
  "assay": "EMSA",
  "conditions": "EMSA with 10 nM probe, 5% acrylamide gel, RedSafe stain; buffer, salt, pH and temperature not given (as previously described, ref 27)",
  "data": [
    {"sequence": "GAAATCGGGCGTGGCATTCTGATTACTCAACAGTAATTCACGAACCCTTTTCTCGATCTCTTTCGCTGTCGCCGGGTTCTCTTTCAGCCAGGTAGTCGCGTTCGCTTTACCCTGGCCAATCTTCT (double strand) [recA]", "values": [
      {"measurement": "binding", "value": "no binding"}
    ]}
  ]
}
